PMC10746276

Molecular target: CsrA-His6 (Escherichia coli) (UniProt P69913)
Test: EMSA
Conditions: EMSA: 0.1 nM RNA, 10 mM MgCl2, 100 mM KCl, 32.5 ng yeast RNA, 20 mM DTT, 7.5% glycerol, 4 U SUPERasin, 30 min 37 C (pH not given), footprint: 2 nM RNA

Chain of CsrA-His6 (Escherichia coli) (P69913 whole entry): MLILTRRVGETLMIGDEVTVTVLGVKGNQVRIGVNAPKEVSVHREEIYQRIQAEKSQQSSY

Row | Substance | Kd [nM] | Kd (second shifted species at 30 nM CsrA and higher) [nM]
1 | yqjD leader WT, full-length (yqjC-yqjD intercistronic RNA) | 8 | 9
2 | yqjD leader full-length, BS4 mutant (CUGGA to GUGGA) | 25 | –
